In US12404345B2, “Humanized antibodies against iRHOM2” (SCIRHOM GMBH, priority 2021, dated 2025):

Legend:
[1] = tested on: RH-30 cells; assay: FACS binding to RH-30 cells endogenously negative for iRhom2; set-up: species or system human; settings: antibody at 3 μg/ml
Protocol: (§1) In this study, binding specificity analyses of the humanized antibody 42-B-02 as a representative example of the antibodies of the invention in cell lines endogenously expressing iRhom2 were performed. The studies were conducted on RPMI-8226 cells, a human B lymphocytic cell line endogenously expressing iRhom2 but being endogenously negative for iRhom1, on THP-1 cells, a human monocytic cell line endogenously expressing both iRhom2 and iRhom1 and on RH-30 cells, a human […] cell line endogenously negative for iRhom2 but endogenously expressing iRhom1.
(§2) In brief, human RPMI-8226 cells (Deutsche Sammlung von Mikroorganismen und Zellkulturen, Germany), THP-1 cells (American Type Culture Collection, USA) and RH-30 cells (Deutsche Sammlung von Mikroorganismen und Zellkulturen, Germany) were harvested with 10 mM EDTA in PBS, washed and resuspended in FACS buffer (PBS, 3% FBS, 0.05% sodium azide), and seeded in Nunc U-bottom 96-well plates (Thermo Fisher Scientific, USA) at approximately 2×10^5 cells per well. In order to pellet cells and remove supernatants, the plates were centrifuged at 1,500 rpm and 4° C. for 3 minutes. […] Finally, cells were resuspended in 150 μl per well of FACS buffer and analyzed using a BD Accuri™ C6 Plus flow cytometer (Becton Dickinson, Germany).

[2] = molecular target: T1, endogenous iRhom2 on RPMI-8226 cells (Homo sapiens, UniProt Q6PJF5); assay: FACS binding to RPMI-8226 cells endogenously expressing iRhom2; settings: antibody at 3 μg/ml
T1 construct: RPMI-8226 cells, a human B lymphocytic cell line endogenously expressing iRhom2; host or cells: RPMI-8226
T1 sequence (Q6PJF5 1-856): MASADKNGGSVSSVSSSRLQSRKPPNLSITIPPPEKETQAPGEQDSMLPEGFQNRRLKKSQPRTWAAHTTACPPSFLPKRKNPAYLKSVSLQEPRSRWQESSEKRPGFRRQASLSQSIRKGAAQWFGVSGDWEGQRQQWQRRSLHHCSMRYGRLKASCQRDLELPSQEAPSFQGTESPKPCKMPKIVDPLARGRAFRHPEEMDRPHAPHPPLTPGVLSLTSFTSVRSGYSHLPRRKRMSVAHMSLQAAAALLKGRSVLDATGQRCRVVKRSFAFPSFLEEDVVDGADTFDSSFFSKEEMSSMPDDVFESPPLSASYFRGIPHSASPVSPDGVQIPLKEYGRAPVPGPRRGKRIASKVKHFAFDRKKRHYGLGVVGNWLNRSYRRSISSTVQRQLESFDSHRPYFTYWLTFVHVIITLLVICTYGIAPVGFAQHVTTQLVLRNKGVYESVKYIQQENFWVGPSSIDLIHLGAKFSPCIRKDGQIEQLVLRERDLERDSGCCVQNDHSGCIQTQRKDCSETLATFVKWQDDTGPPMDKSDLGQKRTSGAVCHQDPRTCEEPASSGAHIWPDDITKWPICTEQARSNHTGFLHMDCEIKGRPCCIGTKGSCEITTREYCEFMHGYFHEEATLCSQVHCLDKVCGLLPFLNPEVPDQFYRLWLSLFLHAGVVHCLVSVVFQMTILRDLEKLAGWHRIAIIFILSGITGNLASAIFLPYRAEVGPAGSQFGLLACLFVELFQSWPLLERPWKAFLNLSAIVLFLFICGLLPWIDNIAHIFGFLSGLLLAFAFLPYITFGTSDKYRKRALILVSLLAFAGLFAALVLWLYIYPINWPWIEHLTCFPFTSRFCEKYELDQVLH
Protocol: as §1, §2

B1: 42-B-02: humanized antibody binding human iRhom2; HCVD SEQ ID NO 33, LCVD SEQ ID NO 37 (antibody, V domains shown)
VH: QVTLRESGPALVKPTQTLTLTCTFSGFSLSTFGRGVGWIRQPPGKALEWLAHIWWDDEKYYNSALKSRLTISKDTSKNQVVLTITNMDPVDTATYYCARIQNYGSNYWYFDVWGQGTLVTVSS
VL: AIQLTQSPSSLSASVGDRVTITCRASSRISYMFWYQQKPGKAPKVLIYDTSNLASGVPSRFSGSGSGTDYTLTISSLQPEDFATYYCQQWNSYPLTFGQGTKLEIK
modifications: antibody sequences
binding to RH-30 cells (endogenously negative for iRhom2, expressing iRhom1) [1]: no binding
binding to RPMI-8226 cells (endogenously expressing iRhom2, negative for iRhom1) [2]: strong binding
